Laboratory results: PMC8649396
One block for each substance: values may come before it.

Tests used:
[1] = biological target: His-tagged phthalate dioxygenase from Comamonas testosteroni KF1 (Ht-PDOKF1) (Comamonas testosteroni KF1); test: SEC
[2] = biological target: Rieske oxygenase from Cupriavidus metallidurans CH34 (RO_CH34) (Cupriavidus metallidurans CH34); test: SEC
[3] = biological target: Rieske oxygenase from Cupriavidus metallidurans CH34 (RO_CH34) (Cupriavidus metallidurans CH34); test: crystal structure
[4] = biological target: Phthalate dioxygenase from Comamonas testosteroni KF1 (PDOKF1), as crystallised (Comamonas testosteroni KF1); test: crystal structure

stoichiometry N [1]: 6
Substance: His-tagged phthalate dioxygenase from Comamonas testosteroni KF1 (Ht-PDOKF1) (enzyme)

stoichiometry N [2]: 3 | stoichiometry N [3]: 3
Substance: Rieske oxygenase from Cupriavidus metallidurans CH34 (RO_CH34) (enzyme)

stoichiometry N [4]: 6
Substance: Phthalate dioxygenase from Comamonas testosteroni KF1 (PDOKF1), as crystallised (enzyme)
